Drawing on publication PMC13430412, this text covers fraction co-floated with SUVs bearing His-tagged Rab7A and fraction of total overexpressed VPS13 retained for two substances.

Test [1] deals with Rab7A(Q67L)-6xHis (human) (UniProt P51149). Kind of test: liposome co-flotation; purified VPS13C constructs with SUVs (5% DGS-NTA) bearing His-tagged protein, 1 mM GTP, 2 mM Mg2+, room temperature 20 min; OptiPrep gradient, top fraction by SDS-PAGE.
The target of test [2] is Strep-tagged Rab7A (Q67L) (human) (UniProt P51149). Description: pull-down; Strep-Rab7A(Q67L) and FLAG-tagged VPS13C constructs co-expressed in Expi293F; lysate (buffer A with 1 mM GTP, 2 mM MgCl2) on Strep-Tactin XT resin, eluted with biotin; SDS-PAGE with Coomassie and/or anti-FLAG western blot. (In western blotting, separated proteins are transferred to a membrane and probed.)
Strep-tagged Rab7A (Q67L) (human), sequence (P51149 whole entry Q67L): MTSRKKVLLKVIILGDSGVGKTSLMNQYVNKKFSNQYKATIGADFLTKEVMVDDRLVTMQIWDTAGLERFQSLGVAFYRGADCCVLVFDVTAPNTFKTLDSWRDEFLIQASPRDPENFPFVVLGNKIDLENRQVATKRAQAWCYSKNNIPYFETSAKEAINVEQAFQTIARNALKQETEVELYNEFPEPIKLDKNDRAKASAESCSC

Rab7A(Q67L)-6xHis (human), sequence (P51149 whole entry Q67L): as above

On to VPS13C-ΔATG2C-3xFLAG, Q709C8 1-3753, for which the fraction co-floated with SUVs bearing His-tagged Rab7A in test [1] was over 80%. With “VPS13C-3XFLAG (full-length human VPS13C with a C-terminal 3xFLAG tag), Q709C8 1-3753”, the fraction of total overexpressed VPS13 retained in test [2] is 5%.
